Measurements taken from patent US20110306068A1 (HYGLOS INVEST, published 2011).

Target: T1, bacteriophage tail protein T4p12 (bacteriophage T4, UniProt P10930 1-527)
T1 sequence (looked up): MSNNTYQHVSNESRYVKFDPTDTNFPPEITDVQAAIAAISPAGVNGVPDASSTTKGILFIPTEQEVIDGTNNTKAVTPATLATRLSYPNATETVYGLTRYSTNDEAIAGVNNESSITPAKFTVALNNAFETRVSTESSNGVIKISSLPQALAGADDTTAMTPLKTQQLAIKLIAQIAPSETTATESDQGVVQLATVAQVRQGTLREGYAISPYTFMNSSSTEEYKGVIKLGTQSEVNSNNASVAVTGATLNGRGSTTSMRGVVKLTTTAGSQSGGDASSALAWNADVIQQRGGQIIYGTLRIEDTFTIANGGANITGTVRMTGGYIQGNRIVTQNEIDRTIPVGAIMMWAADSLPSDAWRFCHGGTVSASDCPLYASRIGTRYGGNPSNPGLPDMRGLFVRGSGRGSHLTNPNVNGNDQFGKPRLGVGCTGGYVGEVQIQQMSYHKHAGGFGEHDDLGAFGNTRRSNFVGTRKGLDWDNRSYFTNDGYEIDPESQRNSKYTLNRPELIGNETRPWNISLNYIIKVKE
Test: column chromatography; Miro2p12 covalently immobilised on sepharose, control columns without LPS; T4p12 in fractions read by absorption at 280 nm
Method: The amount of the bacteriophage tail protein p12 was plotted against the fractions of the chromatography run. […] The arrow marks the application of p12 onto the column. The fractions F2-F5 were collected after the application. The amount of p12 (stated in mg) was detected by absorption measurement at 280 nm. The fraction volume was 1 ml for fractions F1-F4 and 2 ml for fraction F5. The dissolution of bound T4p12 protein in fraction F5 was affected by addition of 2 mM EDTA to the running buffer (20 mM Hepes, 150 mM NaCl, 0.1 mM CaCl₂, pH 7.5). The bacteriophage tail protein T4p12 was retained at the columns prior loaded with endotoxin, while it elutes without delay through the columns containing no endotoxin.
Bacteriophage tail protein Miro2p12 was immobilized to NHS-Sepharose (Amersham Pharmacia) (3.4 mg protein per 1 ml sepharose) and out of this 4 column were cast with a volume of 0.5 ml each. The columns were washed with each 3 ml sodium phosphate buffer (20 mM sodium phosphate, pH 12.0) and with each 3 ml regeneration buffer (20 mM Hepes, 150 mM NaCl, 2 mM EDTA, pH 7.5). […] The flow-through was collected three times in fractions of 1 ml and once of 2 ml and the concentrations of the bacteriophage tail protein T4p12 was determined via absorption measurement at 280 nm in these fractions (FIG. 5). […]

B1: bacteriophage tail protein Miro2p12 (other)
chain: MAQNNYNHYSDLAKYTIFDPTNTQWPVAIKDVQSALELIGSWARTDTGLPVASPTVAGVIRTATQAEVDAGTIGNAAVTPATLKSTVTRPEATTAVLGLTRYATNTEAAALTAGNRTITAAALGHVFKTVKAQENVDGTVRLTTAAQAQAGTDETTAVTPKRVVEMIGKFSVSPPSYTSATESNLGLVRVATQAQVAAGAVHDGYAVTPKTFMASKASDSVFGIVKFAKDSDVASATSNNLAVTPKSLQALKSTKDKYGLTRLSGSPTTDASLAAAATDAVFKTRRINGKTLDNDITITNNDINCYTRQESDGRYMPAGTRVGNVTWVEGQSWISRGATFTCNAPWEASSRLALNVNVKFERNNDGYDNRIFRFVVIVNGSQWGGELTLNIENTKGGRNGHSWRFEAYASSNFFFNNIPPNATVQIRPTEDSRIIFYDCMLTFCTNRP
notes: The only purification described is of the N-Strep form
- binding result: no binding (tested: 0.5 ml of 0.844 mg/ml T4p12 applied)
